For data set [1] the following is noted: cited from earlier work.
The nature of data set [2]: Hydrolysis of Type II pyrethroid, chloroform-methanol extraction assay. The data set is classed as biochemical. The arrangement: key: —: Not substantially different from values obtained using control cell extracts. How it is done:
Since the TLC assay is more protracted than the chloroform-methanol extraction procedure, the latter (as described above for acid-labelled pyrethroids) was adopted to measure the 3-phenoxbenzoate anion produced from these substrates.
For all assays the molar amount of product formed was calculated from the known specific activity of the radiolabelled substrate. […] Assays at concentrations greater than 0.5 μM, which approximates the published aqueous solubility of permethrin, gave erratic results so precluding the measurement of Km and kcat. […] Assay conditions were therefore adjusted to measure the hydrolysis of the more-readily hydrolysed enantiomer in each pair. […] The same considerations about substrate solubility and proportionality of response to its concentration were assumed for all enzymes and substrates.
The specificity constant (ie kcat/Km) can therefore be calculated from the above equation using the initial hydrolysis rate (pmol/min, calculated from the known specific activity of the radiolabelled substrate) and the concentrations of substrate and enzyme in the assay. The diffusion-limited maximum value for a specificity constant is 10^8-10^9 M^−1sec^−1 (Stryer, 1981).

Data set [3] in a line: Fluorometric determination of lipase activity. To be noted: 4-MU-palmitate 10^−4M; ± standard error of duplicate assays. The data set is classed as biochemical. The source says:
A fluorogenic assay was used to measure lipase activity of insect esterases or lipases, and mutants thereof. The fluorogenic substrate provides rapid reproducible methods for measuring enzymatic activity. Fatty acid esters (acylated) of 4-methylumbelliferone fluorophors are used as substrates for the identification of lipase activity. This assay uses the fluorophore 4-methylumbelliferyl palmitate (4-MU-palmitate) (structure provided below) and is a modification of the fluorometric esterase titration assay of Devonshire et al. (2002) and the method of Hamid et al. (1994) used for the rapid characterisation and identification of Mycobacteria. [drawing 4]
4-MU-palmitate is hydrolysed by a lipase to release the fluorescent 4-methylumbelliferone (4-MU), which can be measured by a fluorimeter.
A standard curve for 4-MU is prepared in each plate alongside the titrations. 25 μL 10^−2M dMU stock (19.8 mg/10 ml in 100% ethanol) was diluted with 2.475 ml (3×825 μl) ethanol to give a 10^−4M solution. This 10^−4M solution was used to prepare a standard curve from 0 to 1.0 μM in 0.1M phosphate buffer pH 7.0 (plus 0.05% or 0.5% ultrapure Triton X-100 (TX100) if present in cell extracts). This was done by dispensing 25 μl, 20 μl, 15 μl, 10 μl, 5 μl, 0 μl (plus ethanol to 25 μl) into tubes and adding 2.475 ml phosphate buffer (or phosphate buffer containing TX100 if required), then adding 100 μl per well. This gives 0.2, 0.4, 0.6, 0.8 and 1.0 uM in 0.25% TX100.
The samples were read on a Fluorostar fluorometer (BMG LabTechnologies) alongside the following titration reactions using the basic settings: excitation—355 nm, emission—460 nm, gain—zero, 10 cycles of 180 secs with shaking before each cycle.
For the assay, 20 μl of 5×10^−4 4-MU-palmitate (in 100% acetone) was to the wells that require substrate (II & III as defined in Table 4 below) and air dried. […] Cell extracts should be added immediately before readings start.
Corrected fluorescence (Fcorrected) was calculated by the following equations. […]

A short description of data set [4]: Esterase activity with α-naphthyl acetate. The note with it: substrate α-naphthyl acetate; for Km: read-out: α-NA activity Km. The data set is classed as biochemical.
Data set [5] in a line: Permethrin hydrolysis, radiometric partition assay (acid-labelled substrate). The data set is classed as biochemical. The note with it: sequential incubation of trans permethrin with E3WT and E4 from OP resistant aphid homogenates.
Method: Expressed enzymes were tested for permethrin hydrolytic activity using a radiometric partition assay for acid-labelled compounds, or a TLC based assay for those labelled in the alcohol moiety (Devonshire and Moores, 1982). […] The power of the analyses was increased by separating permethrin into its cis and trans isomers.
Preparative thin layer chromatography (TLC) on silica was used to separate the isomers into two enantiomer pairs: 1S/1R cis and 1S/1R trans. […] Enzyme preparations could then be assayed for the hydrolysis of each enantiomer pair.
This assay (Devonshire and Moores, 1982) is used for permethrin isomers. It relies on incubating the expressed esterase with radiolabelled substrate and then measuring the radioactive cyclopropanecarboxylate anion in the aqueous phase after extracting the unchanged substrate into organic solvent. Based on previous experience, the best extraction protocol utilises a 2:1 (by volume) mixture of methanol and chloroform. […] Subsequent addition of an excess of chloroform and buffer exceeds the capacity of the methanol to hold the phases together, so that the organic phase can be removed and the product measured in the aqueous phase. […]

Consider `CC1(C)C(C=C(Cl)Cl)C1C(=O)OCc1cccc(Oc2ccccc2)c1` (stereo not drawn) [permethrin], for which, in data set [1], the “published solubility in aqueous solution” value was 0.5 µM.

B1: EST23WT: wild-type Drosophila melanogaster EST23 α-carboxylesterase (SEQ ID NO:2) (protein)
chain: MNKNLGFVERLRGRLKTIEHKVQQYRQSTNETVVADTEYGQVRGIKRLSLYDVPYFSFEGIPYAQPPVGELRFKAPQRPIPWEGVRDCSQPKDKAVQVQFVFDKVEGSEDCLYLNVYTNNVKPDKARPVMVWIHGGGFIIGEANREWYGPDYFMKEDVVLVTIQYRLGALGFMSLKSPELNVPGNAGLKDQVLALKWIKNNCASFGGDPNCITVFGESAGGASTHYMMLTDQTQGLFHRGILQSGSAICPWAYNGDITHNPYRIAKLVGYKGEDNDKDVLEFLQNVKAKDLIRVEENVLTLEERMNKIMFRFGPSLEPFSTPECVISKPPKEMMKTAWSNSIPMFIGNTSYEGLLWVPEVKLMPQVLQQLDAGTPFIPKELLATEPSKEKLDSWSAQIRDVHRTGSESTPDNYMDLCSIYYFVFPALRVVHSRHAYAAGAPVYFYRYDFDSEELIFPYRIMRMGRGVKGVSHADDLSYQFSSLLARRLPKESREYRNIERTVGIWTQFAATGNPYSEKINGMDTLTIDPVRKSDEVIKCLNISDDLKFIDLPEWPKLKVWESLYDDNKDLLF
modifications: Drosophila melanogaster
As a reminder, the Km is the substrate concentration at which the rate is half of its maximum. Consider B1, for which, in data set [2], the “Specificity Constant (kcat/Km) 1R cis αR deltamethrin” value is on record as “—” and the “Specificity Constant (kcat/Km) 1R cis αS deltamethrin” value is “—”. In addition, the 4-MU-palmitate activity in data set [3] was 0.0677 ± 0.0032 moles 4MU produced per sec per mole of enzyme. In addition, in data set [4], the α-NA activity kcat is 276 s⁻¹ and the Km came out at 82 µM.

B2: MpE4WT: wild-type Myzus persicae E4 α-carboxylesterase (SEQ ID NO:3) (protein, listed as Myzus persicae)
chain: MKNTCGILLNLFLFIGCFLTCSASNTPKVQVHSGEIAGGFEYTYNGRKIYSFLGIPYASPPVQNNRFKEPQPVQPWLGVWNATVPGSACLGIEFGSGSKIIGQEDCLFLNVYTPKLPQENSAGDLMNVIVHIHGGGYYFGEGILYGPHYLLDNNDFVYVSINYRLGVLGFASTGDGVLTGNNGLKDQVAALKWIQQNIVAFGGDPNSVTITGMSAGASSVHNHLISPMSKGLFNRAIIQSGSAFCHWSTAENVAQKTKYIANLMGCPTNNSVEIVECLRSRPAKAIAKSYLNFMPWRNFPFTPFGPTVEVAGYEKFLPDIPEKLVPHDIPVLISIAQDEGLIFSTFLGLENGFNELNNNWNEHLPHILDYNYTISNENLRFKTAQDIKEFYFGDKPISKETKSNLSKMISDRSFGYGTSKAAQHIAAKNTAPVYFYEFGYSGNYSYVAFFDPKSYSRGSSPTHGDETSYVLKMDGFYVYDNEEDRKMIKTMVNIWATFIKSGVPDTENSEIWLPVSKNLADPFRFTKITQQQTFEAREQSTTGIMNFGVAYH
Regarding B2, the “enantiomer preference for trans permethrin” value in data set [5] was “preference for the 1S trans enantiomer”. In addition, the 4-MU-palmitate activity in data set [3] was 0.1051 ± 0.0033 moles 4MU produced per sec per mole of enzyme. In addition, in data set [4], the α-NA activity kcat came out at 3 s⁻¹ and the Km came to 28 µM.

B3: E3WT: wild-type Lucilia cuprina E3 α-carboxylesterase (SEQ ID NO:1), baculovirus expressed (protein, listed as Lucilia cuprina)
chain: MNFNVSLMEKLKWKIKCIENKFLNYRLTTNETVVAETEYGKVKGVKRLTVYDDSYYSFEGIPYAQPPVGELRFKAPQRPTPWDGVRDCCNHKDKSVQVDFITGKVCGSEDCLYLSVYTNNLNPETKRPVLVYIHGGGFIIGENHRDMYGPDYFIKKDVVLINIQYRLGALGFLSLNSEDLNVPGNAGLKDQVMALRWIKNNCANFGGNPDNITVFGESAGAASTHYMMLTEQTRGLFHRGILMSGNAICPWANTQCQHRAFTLAKLAGYKGEDNDKDVLEFLMKAKPQDLIKLEEKVLTLEERTNKVMFPFGPTVEPYQTADCVLPKHPREMVKTAWGNSIPTMMGNTSYEGLFFTSILKQMPMLVKELETCVNFVPSELADAERTAPETLEMGAKIKKAHVTGETPTADNFMDLCSHIYFWFPMHRLLQLRFNHTSGTPVYLYRFDFDSEDLINPYRIMRSGRGVKGVSHADELTYFFWNQLAKRMPKESREYKTIERMTGIWIQFATTGNPYSNEIEGMENVSWDPIKKSDEVYKCLNISDELKMIDVPEMDKIKQWESMFEKHRDLF
On to B3, for which, in data set [2], the “Specificity Constant (kcat/Km) 1R cis αR deltamethrin” value is on record as “—”, the “Specificity Constant (kcat/Km) 1R cis αS deltamethrin” value was “—”, the “Specificity Constant (kcat/Km) 1S cis αR deltamethrin” value was “—^1” and the “Specificity Constant (kcat/Km) 1S cis αS deltamethrin” value is recorded as “—”. The “enantiomer preference for trans permethrin” value in data set [5] was “preference for the 1S trans enantiomer”. Moreover, the 4-MU-palmitate activity in data set [3] is given as 0.0298 ± 0.0006^1 moles 4MU produced per sec per mole of enzyme. In data set [4], the α-NA activity kcat came out at 248 s⁻¹ and the Km stood at 71 µM.

These data come from patent US20050176118A1, “Esterases with lipase activity” (priority 2002, published 2005).
